B2: Pertactin on the surface of Bvg+ B. bronchiseptica RB53 (receptor)
chain: DWNNQSIIKAGERQHGIHIKQSDGAGVRTATGTTIKVSGRQAQGVLLENPAAELRFQNGSVTSSGQLFDEGVRRFLGTVTVKAGKLVADHATLANVSDTRDDDGIALYVAGEQAQASIADSTLQGAGGVRVERGANVTVQRSTIVDGGLHIGTLQPLQPEDLPPSRVVLGDTSVTAVPASGAPAAVSVFGANELTVDGGHITGGRAAGVAAMDGAIVHLQRATIRRGDAPAGGAVPGGAVPGGAVPGGFGPLLDGWYGVDVSDSTVDLAQSIVEAPQLGAAIRAGRGARVTVSGGSLSAPHGNVIETGGGARRFPPPASPLSITLQAGARAQGRALLYRVLPEPVKLTLAGGAQGQGDIVATELPPIPGASSGPLDVALASQARWTGATRAVDSLSIDNATWVMTDNSNVGALRLASDGSVDFQQPAEAGRFKVLMVDTLAGSGLFRMNVFADLGLSDKLVVMRDASGQHRLWVRNSGSEPASANTMLLVQTPRGSAATFTLANKDGKVDIGTYRYRLAANGNGQWSLVGAKAPPAPKPAPQPGPQPGPQPPQPPQPPQRQPEAPAPQPPAGRELSAAANAAVNTGGVGLASTLWYAESNALSKRLGELRLNPDAGGAWGRGFAQRQQLDNRAGRRFDQKVAGFELGADHAVAVAGGRWHLGGLAGYTRGDRGFTGDGGGHTDSVHVGGYATYIANSGFYLDATLRASRLENDFKVAGSDGYAVKGKYRTHGVGASLEAGRRFAHADGWFLEPQAELAVFRVGGGAYRAANGLRVRDEGGSSVLGRLGLEVGKRIELAGGRQVQPYIKASVLQEFDGAGTVRTNGIAHRTELRGTRAELGLGMAAALGRGHSLYASYEYSKGPKLAMPWTFHAGYRYSW

How the values were obtained:
[1] = target: B2
[2] = target: T1, Biotinylated Prn-E (pertactin residues 38-640 with N-terminal biotinylation sequence) (B. bronchiseptica, UniProt Q03035 38-640, biotin (in vivo biotinylation of the N-terminal biotinylation sequence)); assay: SPR
T1 chain: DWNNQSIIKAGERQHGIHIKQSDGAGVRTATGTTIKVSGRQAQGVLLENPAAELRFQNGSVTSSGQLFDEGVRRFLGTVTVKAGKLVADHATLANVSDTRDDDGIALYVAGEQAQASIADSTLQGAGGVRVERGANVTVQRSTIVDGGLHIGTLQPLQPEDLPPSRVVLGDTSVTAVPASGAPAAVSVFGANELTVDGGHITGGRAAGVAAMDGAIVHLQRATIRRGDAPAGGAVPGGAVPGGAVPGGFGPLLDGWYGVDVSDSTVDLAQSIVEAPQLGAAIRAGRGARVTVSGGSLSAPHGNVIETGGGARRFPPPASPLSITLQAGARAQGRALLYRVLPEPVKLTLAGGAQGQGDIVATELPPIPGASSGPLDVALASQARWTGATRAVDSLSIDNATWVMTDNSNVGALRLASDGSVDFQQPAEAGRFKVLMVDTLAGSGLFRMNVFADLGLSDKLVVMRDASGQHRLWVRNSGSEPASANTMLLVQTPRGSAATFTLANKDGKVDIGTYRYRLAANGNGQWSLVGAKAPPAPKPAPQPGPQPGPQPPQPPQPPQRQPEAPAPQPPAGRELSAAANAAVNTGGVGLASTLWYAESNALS

[3] = target: BPP-6 phage displaying Mtd-P6 (Bordetella bacteriophage BPP-6, UniProt Q775D6)

B1: BPP-1 phage displaying Mtd-P1 (other)
chain: MSTAVQFRGGTTAQHATFTGAAREITVDTDKNTVVVHDGATAGGFPLARHDLVKTAFIKADKSAVAFTRTGNATASIKAGTIVEVNGKLVQFTADTAITMPALTAGTDYAIYVCDDGTVRADSNFSAPTGYTSTTARKVGGFHYAPGSNAAAQAGGNTTAQINEYSLWDIKFRPAALDPRGMTLVAGAFWADIYLLGVNHLTDGTSKYNVTIADGSASPKKSTKFGGDGSAAYSDGAWYNFAEVMTHHGKRLPNYNEFQALAFGTTEATSSGGTDVPTTGVNGTGATSAWNIFTSKWGVVQASGCLWTWGNEFGGVNGASEYTANTGGRGSVYAQPAAALFGGAWNGTSLSGSRAALWYSGPSFSFAFFGARGVCDHLILE
**Q.** What does the source list for B1?
**A.** Kd [1]: 3.7 pM; koff [2]: 0.000636 s⁻¹

**Q.** For B2, which Kd [3] is on record?
**A.** 0.059 pM
